“And” between values parts separate entries of the source, which are not always exact repeats. Identical values can stand only once.
How the values were obtained:
[1] = tested on: neutrophil (PMN) infiltration in retina/vitreous; experiment: Mouse S. aureus endophthalmitis: PMN infiltration by flow cytometry (CD45/Ly6G); format: in vivo, C57BL/6 mice; conditions: vs vehicle-treated/control eyes, 24 h post treatment
Description: FIG. 6 depicts infiltration of polymorphonuclear cells (PMNs) in the Ply187AN-KSH3b-treated mouse retina/vitreous cavity. Infected eyes were given intravitreal injections of either EB or chimeric Ply187AN-KSH3b for either 6 or 12 h post infection. Twenty four hour post Ply187AN-KSH3b treatment, the eyes (n=6) were enucleated and the retina/vitreous humor from two eyes were pooled to make single-cell suspensions. The cells were stained with anti-CD45 and anti-Ly6G mAbs. Post-acquisition, the cells were size-gated to differentiate them from debris. The percentage of dually positive PMNs was determined using a CD45-versus-Ly6G dot plot (upper-right quadrant). The data are summarized in a bar graph representative of duplicate experiments. *p<0.05 (student t-test)
Following euthanasia, the retinas were isolated from the eyes as described by Skeie et al. (2011. J. Vis. Exp. 50:2795) and were digested in Accumax (Millipore, Billerica, Mass.) for 10 min at 37° C. Retinas from two eyes were pooled together to obtain a sufficient number of cells. Following digestion, the retinal tissue was passed through a 23-gauge needle & syringe and filtered through a 40 μm cell strainer (BD Falcon, San Jose, Calif.). […] After subsequent washing steps, the cells were acquired on an Accuri C6 flow cytometer (Accuri, Ann Arbor, Mich.), and the data were analyzed using Accuri C6 software (Accuri, Ann Arbor, Mich.).

S. aureus strain RN6390 = experiment: Inoculum effect study in vitro; format: cell-based, Staphylococcus aureus; conditions: dilutions 1:10,000 to 1:10, 1 h at MIC
Excerpt: FIGS. 4 A, B and C depict the effect of chimeric Ply187AN-KSH3b on bacterial growth in vivo and in the vitreous humor (VH) in vitro and with increasing inoculums in vitro respectively. […] Twenty-four hours after the treatment, the eyes were enucleated, homogenized and the bacterial burden was estimated via serial dilution plating. FIG. 4B depicts a test showing the effect of the vitreous humor on Ply187AN-KSH3b antimicrobial activity where Ply187AN-KSH3b was mixed with calf vitreous humor and inoculated with 10^5 CFU of S. aureus. The survival of the bacteria was enumerated by CFU count at 2, 4 and 6 h of incubation. Statistical analysis was performed using unpaired student's t test (*, p<0.05; **, p<0.005; ***, p<0.0005). […] An increasing number of dilutions (1:10,000 to 1:10) of logarithmic phase of S. aureus (RN6390 strain) were treated with Ply187AN-KSH3b for 1 h followed by CFU enumeration on TSA plates. Statistical analysis was performed using unpaired student's t test (*, p<0.05; **, p<0.005; ***, p<0.0005).
To determine the effect of Vitreous Humor (VH) on antimicrobial activity of chimeric Ply187AN-KSH3b in vitro, bacteria (10^5 CFU) were incubated with chimeric Ply187AN-KSH3b in the presence of calf VH. Following incubation at 37° C. for the desired time, bacterial growth in VH was enumerated by serial dilution plating. […]

staphylococci = conditions: Mao et al.; cited from earlier work
[2] = tested on: S. aureus strains/isolates RN6390, USA 300, R2932, R2952 and R3000; experiment: Turbidity reduction assay; format: cell-based, Staphylococcus aureus; conditions: at MIC, measured every 5 min up to 1 h
Description: Error bars represent SEM for three independent experiments performed in triplicates. […] Cells surviving at half (½) of the MIC value were used as an inoculum for each subsequent round of exposure. The change in susceptibility is recorded and presented as fold change resistance from day 1 to 10 of exposure and also after 5 days of growth (without any selection pressure) following the 10th day (represented as 10+5). The data represent means±SEM of two independent experiments performed in triplicate.
To verify and quantify the lytic activity against live S. aureus, we have tested Ply187AN-KSH3b in the Turbidity Reduction Assay. The turbidity assay measures the drop in optical density (OD) resulting from lysis of the target bacteria with the phage endolysin-derived protein. Turbidity reduction assays by chimeric Ply187AN-KSH3b were performed in a 96 well plate as described previously by Becker et al. (2009a, 2009b, supra). Briefly, S. aureus strains/isolates RN6390, USA 300, and clinical isolates R2932, R2952 and R3000 were grown to logarithmic phase (OD600 0.4-0.6) at 37° C. in tryptic Soy broth (TSB). The culture was harvested by centrifugation and the pellet was resuspended in assay buffer (400 mM NaCl, 20 mM Tris HCl, 1% glycerol, pH 7.5). […] The reduction in the turbidity was measured after every 5 min up to 1 h using a micro plate reader. […]

B1: Ply187AN-KSH3b: staphylococcal peptidoglycan hydrolase fusion protein: endopeptidase domain of prophage endolysin Ply187 plus SH3b cell wall-binding domain of phage K endolysin LysK (SEQ ID NO:1) (protein)
chain: MALPKTGKPTAKQVVDWAINLIGSGVDVDGYYGRQCWDLPNYIFNRYWNFKTPGNARDMAWYRYPEGFKVFRNTSDFVPKPGDIAVWTGGNYNWNTWGHTGIVVGPSTKSYFYSVDQNWNNSNSYVGSPAAKIKHSYFGVTHFVRPAYKAEPKPTPPLESTPATRPVTGSWKKNQYGTWYKPENATFVNGNQPIVTRIGSPFLNAPVGGNLPAGATIVYDEVCIQAGHIWIGYNAYNGNRVYCPVRTCQGVPPNQIPGVAWGVFKVEHHHHHH
modifications: Chemically Synthesized Fusion Protein
[1]
  reduction in neutrophil (PMN) infiltration: 40-50% and ~50%
S. aureus strain RN6390
  activity with increasing bacterial numbers: no reduction in Ply187AN-KSH3b activity
staphylococci
  antimicrobial effectiveness relative to Ply187, Ply187AN and LysK: more effective antimicrobial than the full-length Ply187 or the truncated Ply187 (Ply187AN)
[2]
  reduction in the turbidity of suspension culture: time-dependent reduction in the turbidity

From US20150335719A1, “Intravitreal Injection of a Chimeric Phage Endolysin Ply187; Protection from Staphylococcus aureus Endophthalmitis” (priority 2014, published 2015)
